# IntAct's records for PubMed 16477026
# B1: Effector protein HopAB2 (Pseudomonas syringae pv. tomato (strain DC3000)), Q8RSY1 (parent)
# chain: MAGINRAGPSGAYFVGHTDPEPVSGQAHGSGSGASSSNSPQVQPRPSNTPPSNAPAPPPTGRERLSRSTALSRQTREWLEQGMPTAEDASVRRRPQVTADAATPRAEARRTPEATADASAPRRGAVAHANSIVQQLVSEGADISHTRNMLRNAMNGDAVAFSRVEQNIFRQHFPNMPMHGISRDSELAIELRGALRRAVHQQAASAPVRSPTPTPASPAASSSGSSQRSLFGRFARLMAPNQGRSSNTAASQTPVDRSPPRVNQRPIRVDRAAMRNRGNDEADAALRGLVQQGVNLEHLRTALERHVMQRLPIPLDIGSALQNVGINPSIDLGESLVQHPLLNLNVALNRMLGLRPSAERAPRPAVPVAPATASRRPDGTRATRLRVMPEREDYENNVAYGVRLLNLNPGVGVRQAVAAFVTDRAERPAVVANIRAALDPIASQFSQLRTISKADAESEELGFKDAADHHTDDVTHCLFGGELSLSNPDQQVIGLAGNPTDTSQPYSQEGNKDLAFMDMKKLAQFLAGKPEHPMTRETLNAENIAKYAFRIVP
# Variants of: B1
# Conditions: with rs27a_sollc UBI3, P62980
row,Variant,effect of a mutation on the interaction
1,K512R;K529R,decreasing interaction strength
